Target: T1, CAR (Coxsackie and adenoviruses receptor) (human, UniProt P78310 20-365)
T1 sequence: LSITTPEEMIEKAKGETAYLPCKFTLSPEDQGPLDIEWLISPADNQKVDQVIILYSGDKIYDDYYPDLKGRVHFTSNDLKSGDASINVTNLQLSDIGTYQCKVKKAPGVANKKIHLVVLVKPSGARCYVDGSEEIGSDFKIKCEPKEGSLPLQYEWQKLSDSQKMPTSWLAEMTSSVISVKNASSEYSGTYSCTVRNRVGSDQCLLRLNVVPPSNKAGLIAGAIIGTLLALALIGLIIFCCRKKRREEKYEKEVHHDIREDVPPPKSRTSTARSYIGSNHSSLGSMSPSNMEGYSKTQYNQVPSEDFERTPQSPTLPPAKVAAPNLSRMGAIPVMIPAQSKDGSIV
Assay: cell-based or functional assay

B1: vBS1: Ad5 virus with short-shafted fiber from Ad5 (deletion encompassing shaft repeats 4-16) (other)
chain: MKRARPSEDTFNPVYPYDTETGPPTVPFLTPPFVSPNGFQESPPGVLSLRLSEPLVTSNGMLALKMGNGLSLDEAGNLTSQNVTTVSPPLKKTKSNLDINYNKGLYLFTASNNSKKLEVNLSTAKGLMFDATAIAINAGDGLEFGSPNAPNTNPLKTKIGHGLEFDSNKAMVPKLGTGLSFDSTGAITVGNKNNDKLTLWTTPAPSPNCRLNAEKDAKLTLVLTKCGSQILATVSVLAVKGSLAPISGTVQSAHLIIRFDENGVLLNNSFLDPEYWNFRNGDLTEGTAYTNAVGFMPNLSAYPKSHGKTAKSNIVSQVYLNGDKTKPVTLTITLNGTQETGDTTPSAYSMSFSWDWSGHNYINEIFATSSYTFSYIAQE
cell transduction of 293 cells (specific lacZ expression, moi 50 VP/cell): 10 fold
